Consider 1 molecule from patent US10314894B2, “Treatment of cardio-renal disease using PCSK6” (THE CLEVELAND CLINIC FOUNDATION, priority 2014, dated 2019).

In the assay the target is T1, corin mutant R801A (Homo sapiens, UniProt Q9Y5Q5, R801A).
T1 construct: expressed in transfected cells; host or cells: HEK293
T1 sequence (Q9Y5Q5 1-1042 R801A): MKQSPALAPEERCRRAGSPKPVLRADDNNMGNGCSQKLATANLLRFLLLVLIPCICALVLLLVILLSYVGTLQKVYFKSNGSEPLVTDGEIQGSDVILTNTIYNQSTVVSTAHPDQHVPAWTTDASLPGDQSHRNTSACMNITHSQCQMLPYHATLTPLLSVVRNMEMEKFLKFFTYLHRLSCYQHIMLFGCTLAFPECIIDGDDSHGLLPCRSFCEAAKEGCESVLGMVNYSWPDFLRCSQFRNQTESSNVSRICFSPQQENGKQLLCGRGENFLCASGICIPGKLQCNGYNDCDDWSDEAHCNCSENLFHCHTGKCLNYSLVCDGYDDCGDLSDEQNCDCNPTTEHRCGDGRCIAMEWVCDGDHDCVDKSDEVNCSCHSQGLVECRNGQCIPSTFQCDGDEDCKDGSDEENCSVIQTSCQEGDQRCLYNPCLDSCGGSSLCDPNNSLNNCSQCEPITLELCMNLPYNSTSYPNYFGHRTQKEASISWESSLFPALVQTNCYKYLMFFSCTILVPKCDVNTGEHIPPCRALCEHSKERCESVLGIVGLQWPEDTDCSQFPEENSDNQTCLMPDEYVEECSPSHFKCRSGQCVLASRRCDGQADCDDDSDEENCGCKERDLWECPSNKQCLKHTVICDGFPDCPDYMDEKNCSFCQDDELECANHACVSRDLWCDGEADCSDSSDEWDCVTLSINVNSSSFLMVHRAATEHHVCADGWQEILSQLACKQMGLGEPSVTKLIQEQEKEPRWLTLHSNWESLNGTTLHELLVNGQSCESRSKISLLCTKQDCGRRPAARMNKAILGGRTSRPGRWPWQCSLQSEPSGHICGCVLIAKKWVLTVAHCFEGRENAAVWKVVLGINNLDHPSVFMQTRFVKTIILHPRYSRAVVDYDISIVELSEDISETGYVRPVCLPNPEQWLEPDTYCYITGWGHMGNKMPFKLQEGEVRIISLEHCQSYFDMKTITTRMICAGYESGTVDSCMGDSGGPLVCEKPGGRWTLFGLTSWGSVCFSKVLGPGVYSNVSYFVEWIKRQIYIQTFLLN
The assay can be described thus: Corin activation by purified PCSK6 on HEK293 cells, corin mutant R801A. The settings on record: corin R801A mutant lacking the cleavage site, 2 h. In kind it is cell-based. The method, then:
HEK293 and HL-1 cells expressing recombinant corin in 6-well plates were incubated with 1.5 mL (200 μM) of membrane impermeable Sulfo-NHS-SS-biotin for 5 min. Qi et al., J Biol Chem 286, 20963-20969 (2011). A quenching solution was added to the wells and incubated on ice for 10 min. Cells were lysed in the lysis buffer. Labeled proteins were isolated with avidin-coupled agarose beads and analyzed by Western blotting.
Stable HEK293 cells were established to produce human PCSK6 with a C-terminal flag tag. The cells were cultured in DMEM with 10% FBS and 600 μg/mL G418. At confluency, the cells were washed with PBS and cultured with Reduced-Serum Medium. After 72 h, the conditioned medium was collected, centrifuged (10 min at 17,000 g) to remove cell debris, and concentrated to ⅕ of the original volume using a Centrifugal filter unit at 4° C. The concentrated medium was incubated with anti-flag M2 affinity bead slurry in a volume ratio of 25:1 on a rotator at 4° C. for 2 h. […] After centrifugation, the supernatant containing purified PCSK6 was collected, and analyzed by SDS-PAGE followed by silver staining and Western blotting.
Stable HEK293 cells expressing human corin were cultured in 6-well plates in DMEM with 10% FBS and 2 μM monensin. […] After 2 h, cell surface proteins were labeled and corin protein was analyzed by Western blotting.

B1: proprotein convertase subtilisin/kexin-6 (protein, listed as Homo sapiens)
chain: MPPRAPPAPGPRPPPRAAAATDTAAGAGGAGGAGGAGGPGFRPLAPRPWRWLLLLALPAACSAPPPRPVYTNHWAVQVLGGPAEADRVAAAHGYLNLGQIGNLEDYYHFYHSKTFKRSTLSSRGPHTFLRMDPQVKWLQQQEVKRRVKRQVRSDPQALYFNDPIWSNMWYLHCGDKNSRCRSEMNVQAAWKRGYTGKNVVVTILDDGIERNHPDLAPNYDSYASYDVNGNDYDPSPRYDASNENKHGTRCAGEVAASANNSYCIVGIAYNAKIGGIRMLDGDVTDVVEAKSLGIRPNYIDIYSASWGPDDDGKTVDGPGRLAKQAFEYGIKKGRQGLGSIFVWASGNGGREGDYCSCDGYTNSIYTISVSSATENGYKPWYLEECASTLATTYSSGAFYERKIVTTDLRQRCTDGHTGTSVSAPMVAGIIALALEANSQLTWRDVQHLLVKTSRPAHLKASDWKVNGAGHKVSHFYGFGLVDAEALVVEAKKWTAVPSQHMCVAASDKRPRSIPLVQVLRTTALTSACAEHSDQRVVYLEHVVVRTSISHPRRGDLQIYLVSPSGTKSQLLAKRLLDLSNEGFTNWEFMTVHCWGEKAEGQWTLEIQDLPSQVRNPEKQGKLKEWSLILYGTAEHPYHTFSAHQSRSRMLELSAPELEPPKAALSPSQVEVPEDEEDYTAQSTPGSANILQTSVCHPECGDKGCDGPNADQCLNCVHFSLGSVKTSRKCVSVCPLGYFGDTAARRCRRCHKGCETCSSRAATQCLSCRRGFYHHQEMNTCVTLCPAGFYADESQKNCLKCHPSCKKCVDEPEKCTVCKEGFSLARGSCIPDCEPGTYFDSELIRCGECHHTCGTCVGPGREECIHCAKNFHFHDWKCVPACGEGFYPEEMPGLPHKVCRRCDENCLSCAGSSRNCSRCKTGFTQLGTSCITNHTCSNADETFCEMVKSNRLCERKLFIQFCCRTCLLAG
modifications: C-terminal FLAG tag
For the molecule B1, the “activation of corin on the cell surface by purified recombinant PCSK6” value is “did not cleave”.
